Experimental data reported in patent US20240343811A1 (SHANDONG SIMCERE BIOPHARMACUTICAL, published 2024).

T1: Human CD16b (NA1)-his (human)
T1 construct: entry holds ECD, linker, His tag and AVI tag
T1 chain: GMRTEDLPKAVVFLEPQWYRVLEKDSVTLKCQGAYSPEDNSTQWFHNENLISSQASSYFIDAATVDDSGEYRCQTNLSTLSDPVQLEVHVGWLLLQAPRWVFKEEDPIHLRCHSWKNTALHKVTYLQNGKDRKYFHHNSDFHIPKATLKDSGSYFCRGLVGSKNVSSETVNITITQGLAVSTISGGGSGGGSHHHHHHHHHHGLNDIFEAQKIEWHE

T2: human CD16b (NA1), full length, on FlpinCHO cells (human, UniProt O75015 17-200)
T2 construct: also called FlpinCHO-human CD16b (NA1)
T2 chain: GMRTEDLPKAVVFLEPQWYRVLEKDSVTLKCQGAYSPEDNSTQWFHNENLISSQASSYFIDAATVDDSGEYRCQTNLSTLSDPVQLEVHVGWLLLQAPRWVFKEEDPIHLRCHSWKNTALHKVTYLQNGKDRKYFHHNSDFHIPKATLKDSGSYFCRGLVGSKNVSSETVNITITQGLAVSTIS

T3: human CD16b (NA2), full length, on FlpinCHO cells (human, UniProt O75015 17-200)
T3 construct: also called FlpinCHO-human CD16b (NA2)
T3 chain: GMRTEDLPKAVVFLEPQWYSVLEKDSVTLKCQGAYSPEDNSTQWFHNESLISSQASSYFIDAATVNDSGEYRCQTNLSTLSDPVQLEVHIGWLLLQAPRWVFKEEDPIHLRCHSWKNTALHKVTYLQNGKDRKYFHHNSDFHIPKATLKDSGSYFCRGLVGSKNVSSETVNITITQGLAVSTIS


Columns and labels:
[1] = target: T4, human CD16a (158F), full length, on FlpinCHO cells (human, UniProt P08637 17-254); test: FACS, biotinylated antibody, +10 mg/mL human immunoglobulin
[2] = target: T5, human CD16a (158V), full length, on cells (human, UniProt P08637 17-254); test: as above
T5 construct: also used as target for the bought Jurkat-NFAT reporter line stably expressing human CD16a (158V); also called FlpinCHO-human CD16a (158V); FlpinCHO-CD16a (158V)

Human CD16a (158V)-his = target: T6, Human CD16a (158V)-his (human); test: SPR (Biacore), antibody captured on Protein A
T6 construct: entry holds ECD, AVI tag, linker and His tag
Method in brief: (§1)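 Protein A–captured antibody was probed with CD16-his ECD in HBS-EP+ at 25 °C: five 2-fold dilutions from 200 nM, 240 s at 30 μL/min, dissociation up to 600 s. Glycine pH 1.5 regenerated the chip. Apparent KD came from a double-referenced 1:1 Langmuir fit.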

Human CD16b (NA1)-his = target: T1, Human CD16b (NA1)-his; test: SPR (Biacore), antibody captured on Protein A
Method in brief: as §1

Human CD16a (158F)-his = target: T7, Human CD16a (158F)-his (human); test: SPR (Biacore), antibody captured on Protein A
T7 construct: entry holds ECD, AVI tag, linker and His tag
Method in brief: as §1

[3] = target: T4, human CD16a (158F), full length, on …; test: FACS on FlpinCHO cells
Method in brief: (§2)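 EC50 comes from fitted concentration–MFI curves. Antibody dilutions were bound to the cells for 1 hour on ice in PBS blocking buffer with 2% BSA, followed by washing and flow cytometric readout.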

[4] = target: T5, human CD16a (158V), full length, on …; test: FACS on FlpinCHO cells
Method in brief: as §2

[5] = target: T8, CD16 on primary human NK cells (human, UniProt P08637 17-254); test: FACS on human NK cells
T8 construct: whole, on cells; also called resting NK cells
Method in brief: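 EC50 came from curve fitting of flow-cytometric MFI. Antibody titrations were bound for 1 hour on ice to fresh human NK cells blocked in PBS with 2% (w/w) BSA (2×10⁶ cells/ml), followed by five PBS washes before acquisition.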

[6] = target: T8, CD16 on primary human NK cells; test: FACS on human NK cells, biotinylated antibody
[7] = target: T8, CD16 on primary human NK cells; test: FACS on human NK cells, biotinylated antibody, +10 mg/mL human immunoglobulin
[8] = target: T4, human CD16a (158F), full length, on …; test: FACS, biotinylated antibody
[9] = target: T5, human CD16a (158V), full length, on …; test: FACS, biotinylated antibody
[10] = target: T2, human CD16b (NA1), full length, on …; test: FACS on FlpinCHO cells
Method in brief: (§3)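 EC50 values come from fitted MFI curves measured by FACS. Antibody dilutions were bound for 1 hour on ice to CD16b-transfected FlpinCHO cells suspended in PBS with 2% BSA blocking solution.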

[11] = target: T5, human CD16a (158V), full length, on …; test: cell-based or functional assay
[12] = target: T3, human CD16b (NA2), full length, on …; test: FACS on FlpinCHO cells
Method in brief: as §3

[13] = target: T9, cynomolgus monkey CD16, full length, on FlpinCHO cells (cynomolgus monkey, UniProt Q8SPW2 17-254); test: FACS on FlpinCHO cells
T9 construct: also called FlpinCHO-cyno CD16; Flipin CHO-cyno CD16
T9 sequence (Q8SPW2 other isoform, or with tags, fused parts or gaps limits assumed): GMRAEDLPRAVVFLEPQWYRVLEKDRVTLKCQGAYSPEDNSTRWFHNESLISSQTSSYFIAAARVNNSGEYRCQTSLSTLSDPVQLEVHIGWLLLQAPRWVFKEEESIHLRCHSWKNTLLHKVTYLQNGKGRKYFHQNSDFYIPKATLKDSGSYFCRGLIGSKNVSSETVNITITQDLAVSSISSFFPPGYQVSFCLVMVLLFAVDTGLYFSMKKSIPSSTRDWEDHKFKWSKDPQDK
Method: The required cells were scale-up cultured in a T-75 cell culture flask to the logarithmic growth phase. The medium was aspirated, and the cells were washed twice with a PBS buffer and then digested with trypsin. After the digestion was terminated, the cells were washed twice with the PBS buffer. The cells were counted, and then the cell pellet was resuspended with a [PBS+2% (w/w) BSA] blocking solution to 2×10⁶ cells/ml, and added to a 96-well FACS reaction plate at 50 μl/well. […] 50 μl/well of the antibody to be detected was added at different concentrations, and incubated on ice for 1 hour. […] The mixture was centrifuged and washed 5 times with PBS, and FACS (FACS Canto II, purchased from BD Company) was used for detection and result analysis. Data analysis was performed by software (CellQuest) to obtain the mean fluorescence intensity (MFI) of the cells. Then, software (GraphPad Prism8) was used for analysis, data fitting and EC50 value calculation.
Flipin CHO-cyno CD16 cells were subjected to FACS detection and data analysis according to the method of Example 3.1.

Binder | EC50 [1] [nM] | Maximum mean fluorescence intensity [1] | EC50 [2] [nM] | Maximum mean fluorescence intensity [2] | Kd (Human CD16a (158V)-his) [nM] | koff (Human CD16a (158V)-his) [s⁻¹] | kon (Human CD16a (158V)-his) [M⁻¹ s⁻¹] | Kd (Human CD16a (158F)-his) [nM] | koff (Human CD16a (158F)-his) [s⁻¹] | kon (Human CD16a (158F)-his) [M⁻¹ s⁻¹] | EC50 [3] [nM] | Maximum mean fluorescence intensity [3] | EC50 [4] [nM] | Maximum mean fluorescence intensity [4] | EC50 [5] [nM] | Maximum mean fluorescence intensity [5] | EC50 [8] [nM] | Maximum mean fluorescence intensity [8] | EC50 [9] [nM] | Maximum mean fluorescence intensity [9] | also measured
VHH05 VHH-Fc antibody (Fc fusion) QVQLVESGGGLVQAGGSLRLSCVASSSTVTTYAVRWYRQAPGKQREWVAFISVDGNTNYPDSVKGRFIVSRDNAKNTVYLQMNSLKPEDTADYICRAGGQYWGQGTQVTVSSEPKSSDKTHTCPPCPAPEFEGGPSVFLFPPKPKDTLMISRTPEVTCVVVAVSHEDPEVKFNWYVDGVEVHNAKTKPREEQYNSTYRVVSVLTVLHQDWLNGKEYKCKVSNKALPAPIEKTISKAKGQPREPQVYTLPPSREEMTKNQVSLTCLVKGFYPSDIAVEWESNGQPENNYKTTPPVLDSDGSFFLYSKLTVDKSRWQQGNVFSCSVMHEALHNHYTQKSLSLSPGK | 1.51 | 10000 | 1.7 | 13300 | 3.73 | 0.000321 | 86100 | 8.16 | 0.000499 | 61200 | 0.49 | 7320 | 0.53 | 8100 | 0.62 | 2560 | 0.33 | 8780 | 0.74 | 12400 | Kd (Human CD16b (NA1)-his): 9.28 nM; koff (Human CD16b (NA1)-his): 0.000958 s⁻¹; kon (Human CD16b (NA1)-his): 103000 M⁻¹ s⁻¹; EC50 [6]: 1.15 nM; Maximum mean fluorescence intensity [6]: 63200; EC50 [7]: 2.94 nM; Maximum mean fluorescence intensity [7]: 72800; EC50 [10]: 0.96 nM; Maximum mean fluorescence intensity [10]: 42500; EC50, activation activity for Jurkat cell [11]: 0.03 nM; Maximum fluorescence value [11]: 171000
VHH13 VHH-Fc antibody (Fc fusion) EVQVVESGGGLVQAGGSLRLSCAASGITFSSYAMGWYRQAPGKQRELVAAINRFGLTNYADSVKGRFTISRDNAKSTVYLQMTSLKPEDTAVYYCNTGGVYSHPDYYTGTYWGQGTQVTVSSEPKSSDKTHTCPPCPAPEFEGGPSVFLFPPKPKDTLMISRTPEVTCVVVAVSHEDPEVKFNWYVDGVEVHNAKTKPREEQYNSTYRVVSVLTVLHQDWLNGKEYKCKVSNKALPAPIEKTISKAKGQPREPQVYTLPPSREEMTKNQVSLTCLVKGFYPSDIAVEWESNGQPENNYKTTPPVLDSDGSFFLYSKLTVDKSRWQQGNVFSCSVMHEALHNHYTQKSLSLSPGK | 0.67 | 5830 | 1.09 | 9660 | 19.8 | 0.0362 | 1.83e+06 | 22.2 | 0.0192 | 866000 | 0.18 | 6020 | 0.24 | 6660 | 0.15 | 2630 | 0.16 | 6240 | 0.25 | 9620 | EC50 [12]: 1.11 nM; Maximum mean fluorescence intensity [12]: 70200; EC50 [10]: 0.77 nM; Maximum mean fluorescence intensity [10]: 51400; EC50 [13]: 0.24 nM; Maximum mean fluorescence intensity [13]: 21400; EC50, activation activity for Jurkat cell [11]: 0.02 nM; Maximum fluorescence value [11]: 165000
